The subject of data set [1] is O=P(O)(O)O[C@H]1[C@H](OP(=O)(O)O)[C@@H](OP(=O)(O)O)[C@H](OP(=O)(O)O)[C@@H](OP(=O)(O)O)[C@H]1OP(=O)(O)O. As to the kind of experiment: Kinetic parameters of phytase variant with sodium phytate (double reciprocal method). The format is biochemical, Y. kristensenii. As to conditions: other: E230P, optimal pH 4.5 and temperature 60° C. How it is done:
According to embodiment of the present invention, the phytase variant YkAPPA-E230P with amino acid sequence as set forth in SEQ ID NO.10 is obtained by mutation at the 230th site of glutamic acid into proline for phytase with amino acid as set forth in SEQ ID NO.1.
(§1) Gene encoding phytase YkAPPA having the nucleotide sequence as set in SEQ ID NO. 2 from Y. kristensenii was performed with site-directed mutagenesis by Overlap PCR to obtain genes encodng the phytase variants YeAPPA-L162G, YeAPPA-L162A, YeAPPA-E230G, YkAPPA-E230A, YkAPPA-E230S, YkAPPA-E230T, YkAPPA-E230D, YkAPPA-E230P, and YkAPPA-E230R, respectively.
(§2) The modified genes encoding the phytase variants were inserted into expression vector pET-22b (+), and transformed into E coli. Strain BL21 (DE3), which were induced by IPTG in 1 mM, cultivated for 5 h at 24° C. to express the phytase, followed by being purified by columns Ni-NTA and DEAE to obtain the mutant protein with the same molecular weight as that of the wild.
(§3) The effect of pepsin on the activity of the purified mutant phytase was determined by detecting the remaining activity after being treated in pH 2 for 2 hours with the different concentrations of pepsin in a mass ratio to phytase ranging from 1/1000 to 1/1. The activity of phytase was detected by ferric molybdenum sulfate blue method by adding 50 ul of phytase solution to 950 ul of sodium phytate substrate in 1.5 mmol/L to react for 30 min at 37° C., followed by adding 1 mL of 10% (m/v) TCA to stop the reaction, and 2 mL of developing color reagent. After developing, OD is measured at 700 nm to calculate the phytase activity.
(§4) The activity of phytase was measured with sodium phytate as substrate in different concentrations of 0.0625 mmol/L, 0.1 mmol/L, 0.125 mmol/L, 0.2 mmol/L, 0.25 mmol/L, 0.5 mmol/L, 1.0 mmol/L and 1.5 mmol/L at the optimal temperature and pH, followed by calculating the values of km and Vmax by double reciprocal method for Michaelis equation, and Kcat according to the theoretical molecular weight. […] And, the catalytic properties including reaction rate, turnover rate and catalytic efficiency of the other phytase variants were similar to those of the wild phytase.

Data set [2] has the same test system. The description is as above. The format is biochemical, Y. kristensenii. The following applies: other: E230D, optimal pH 4.5 and temperature 55° C. The method, then:
According to embodiment of the present invention, the phytase variant YkAPPA-E230D with amino acid sequence as set forth in SEQ ID NO.9 is obtained by mutation at the 230th site of glutamic acid into aspartic acid for phytase with amino acid as set forth in SEQ ID NO.1.
as §1, §2, §3, §4

Data set [3] has the same test system. Described as above. The format is biochemical, Y. kristensenii. As to conditions: other: E230S, optimal pH 4.5 and temperature 55° C. How it is done: According to embodiment of the present invention, the phytase variant YkAPPA-E230S with amino acid sequence as set forth in SEQ ID NO.7 is obtained by mutation at the 230th site of glutamic acid into serine for phytase with amino acid as set forth in SEQ ID NO.1.
as §1, §2, §3, §4

Data set [4] has the same test system. The description is as above. The format is biochemical, Y. kristensenii. As to conditions: other: E230T, optimal pH 4.5 and temperature 55° C. The method, then: According to embodiment of the present invention, the phytase variant YkAPPA-E230T with amino acid sequence as set forth in SEQ ID NO.8 is obtained by mutation at the 230th site of glutamic acid into threonine for phytase with amino acid as set forth in SEQ ID NO.1.
as §1, §2, §3, §4

The test system is the same in data set [5]. The description is as above. The format is biochemical, Y. kristensenii. The following applies: other: E230G, optimal pH 4.5 and temperature 55° C. The method, then:
(§5) According to embodiment of the present invention, the phytase variant YkAPPA-E230G with amino acid sequence as set forth in SEQ ID NO.5 is obtained by mutation at the 230th site of glutamic acid into glycine for phytase with amino acid as set forth in SEQ ID NO.1.
as §1, §2, §3, §4

Data set [6] deals with Y. kristensenii phytase YkAPPA variant YkAPPA-E230G, SEQ ID NO.5. The data set is described as above. The following applies: E230G vs wild phytase. The format is biochemical. The method, then:
as §5, §1, §2, §3, §4

Data set [7] relates to Y. kristensenii phytase YkAPPA variant YkAPPA-E230A, SEQ ID NO.6. The description is as above. The format is biochemical. The following applies: E230A vs wild phytase. How it is done:
(§6) According to embodiment of the present invention, the phytase variant YkAPPA-E230A with amino acid sequence as set forth in SEQ ID NO.6 is obtained by mutation at the 230th site of glutamic acid into alanine for phytase with amino acid as set forth in SEQ ID NO.1.
as §1, §2, §3, §4

Data set [8] relates to Y. kristensenii phytase YkAPPA variant YkAPPA-L162G, SEQ ID NO.3. The data set is described as above. The format is biochemical. As to conditions: L162G vs wild phytase. The method, then:
(§7) According to embodiment of the present invention, the phytase variant YkAPPA-L162G with amino acid sequence as set forth in SEQ ID NO.3 is obtained by mutation at the 162th site of Leucine into glycine for phytase with amino acid as set forth in SEQ ID NO.1.
as §1, §2, §3, §4

In data set [9] the test system is O=P(O)(O)O[C@H]1[C@H](OP(=O)(O)O)[C@@H](OP(=O)(O)O)[C@H](OP(=O)(O)O)[C@@H](OP(=O)(O)O)[C@H]1OP(=O)(O)O. The data set is described as above. The class given is biochemical, Y. kristensenii. As to conditions: other: L162G, optimal pH 4.5 and temperature 55° C. The method, then: as §7, §1, §2, §3, §4
For data set [10] the test system is unchanged. The description is as above. The format is biochemical, Y. kristensenii. As to conditions: other: E230R, optimal pH 4.0 and temperature 55° C. How it is done: According to embodiment of the present invention, the phytase variant YkAPPA-E230R with amino acid sequence as set forth in SEQ ID NO.11 is obtained by mutation at the 230th site of […] for phytase with amino acid as set forth in SEQ ID.
as §1, §2, §3, §4

Data set [11] shares this test system. The data set is described as above. The following applies: other: E230A, optimal pH 4.5 and temperature 55° C. The format is biochemical, Y. kristensenii. How it is done: as §6, §1, §2, §3, §4
For data set [12] the test system is unchanged. As to the kind of experiment: Kinetic parameters of phytase with sodium phytate (double reciprocal method). The class given is biochemical, Y. kristensenii. As to conditions: other: wild type, optimal pH 4.5 and temperature 55° C. The method, then:
as §1, §2, §3, §4

A word on the Km: it is the concentration of substrate that gives half-maximal velocity. What is called Vmax is the top rate of the reaction or transport when substrate is in excess. The kcat is the number of substrate molecules converted per active site and unit of time at saturation. The kcat/Km is the turnover number divided by the Michaelis constant. Take “Y. kristensenii phytase YkAPPA variant YkAPPA-E230P, SEQ ID NO.10 (Yersinia kristensenii; E230P)”: in data set [1], the Km is recorded as 0.08 mM, the maximal velocity (Vmax) was 3180 µmol/min/mg, the catalytic constant (kcat) was 2430 s⁻¹ and the catalytic efficiency (kcat/Km) was 2.98e+07 M⁻¹ s⁻¹.

“Y. kristensenii phytase YkAPPA variant YkAPPA-E230D, SEQ ID NO.9 (Yersinia kristensenii; E230D)”: in data set [2], the Km is 0.09 mM, the Vmax worked out at 3590 µmol/min/mg, the kcat came to 2740 s⁻¹ and the catalytic efficiency (kcat/Km) was 2.91e+07 M⁻¹ s⁻¹.

For the compound “Y. kristensenii phytase YkAPPA variant YkAPPA-E230S, SEQ ID NO.7 (Yersinia kristensenii; E230S)”, in [3], the Km was determined as 0.09 mM, the Vmax came out at 3800 µmol/min/mg, the kcat came out at 2900 s⁻¹ and the kcat/Km came to 2.93e+07 M⁻¹ s⁻¹.

For “Y. kristensenii phytase YkAPPA variant YkAPPA-E230T, SEQ ID NO.8 (Yersinia kristensenii; E230T)”, in [4], the Km is recorded as 0.08 mM, the maximal velocity (Vmax) came out at 3250 µmol/min/mg, the kcat is 2480 s⁻¹ and the specificity constant (kcat/Km) stood at 2.98e+07 M⁻¹ s⁻¹.

In the case of “Y. kristensenii phytase YkAPPA variant YkAPPA-E230G, SEQ ID NO.5 (Yersinia kristensenii; E230G)”, in [5], the Michaelis constant (Km) is given as 0.10 mM, the Vmax is 7100 µmol/min/mg, the kcat is 5430 s⁻¹ and the catalytic efficiency (kcat/Km) came to 6.17e+07 M⁻¹ s⁻¹.

As to `O=P(O)(O)O[C@H]1[C@H](OP(=O)(O)O)[C@@H](OP(=O)(O)O)[C@H](OP(=O)(O)O)[C@@H](OP(=O)(O)O)[C@H]1OP(=O)(O)O` [sodium phytate], in [6], the “Reaction rate Vmax relative to the wild phytase” value is listed as 1.9 times, the “catalytic efficiency Kcat/km relative to the wild phytase” value came out at 2.1 times and the “conversion rate Kcat relative to the wild phytase” value was found to be 1.9 times. For the same compound, in data set [7], the “Reaction rate Vmax relative to the wild phytase” value was found to be 1.3 times, the “catalytic efficiency relative to the wild phytase” value is on record as 2.1 times and the “conversion rate Kcat relative to the wild phytase” value is reported as 1.3 times. Besides, in data set [8], the “Reaction rate Vmax relative to the wild phytase” value was 1.6 to 1.8 times, the “catalytic efficiency relative to the wild phytase” value came out at 2.1 times and the “conversion rate Kcat relative to the wild phytase” value lay in the range of 1.6 to 1.8 times.

Turning to “Y. kristensenii phytase YkAPPA variant YkAPPA-L162G, SEQ ID NO.3 (Yersinia kristensenii; L162G)”, in data set [9], the Km amounted to 0.09 mM, the Vmax is 6320 µmol/min/mg, the turnover number (kcat) was found to be 4840 s⁻¹ and the catalytic efficiency (kcat/Km) was found to be 4.61e+07 M⁻¹ s⁻¹.

Consider “Y. kristensenii phytase YkAPPA variant YkAPPA-E230R, SEQ ID NO.11 (Yersinia kristensenii; E230R)”, for which, in data set [10], the Michaelis constant (Km) is 0.11 mM, the maximum rate (Vmax) turned out to be 4330 µmol/min/mg, the kcat came out at 3310 s⁻¹ and the catalytic efficiency (kcat/Km) is 2.99e+07 M⁻¹ s⁻¹.

Turning to “Y. kristensenii phytase YkAPPA variant YkAPPA-E230A, SEQ ID NO.6 (Yersinia kristensenii; E230A)”, in [11], the Michaelis-Menten constant (Km) is recorded as 0.09 mM, the Vmax worked out at 4530 µmol/min/mg, the turnover number (kcat) came out at 3470 s⁻¹ and the kcat/Km is 3.77e+07 M⁻¹ s⁻¹.

As for “Yersinia (Y.) kristensenii phytase YkAPPA, wild type, SEQ ID NO.1 (Yersinia kristensenii)”, in data set [12], the Michaelis constant (Km) is reported as 0.09 mM, the Vmax came out at 3550 µmol/min/mg, the turnover number (kcat) is 2720 s⁻¹ and the catalytic efficiency (kcat/Km) was 2.94e+07 M⁻¹ s⁻¹.

(Values after patent US11028377B2, “Phytase variants YkAPPA having improved pepsin resistance and increased catalytic efficiency” (priority 2017, dated 2021).)
